# Results taken from patent US20160200830A1 (NANJING LEGEND BIOTECH, published 2016).
# Target: T1, human transferrin (human, UniProt P02787 20-698)
# T1 construct: Immobilized on a CM5 chip by amine coupling (SPR) or coated on a plate (phage ELISA)
# Assay: SPR, Biacore T200, transferrin immobilized on CM5 chip, sdAb as analyte
# Procedure: Experiments were performed using a BIAcore T200 optical sensor platform and research grade CM5 sensor chips (GE Healthcare). Human transferrin was immobilized on the sensor chip surface by standard amine coupling. All experiments were carried out in HEPES buffer [10 mM HEPES (pH 7.4), 150 mM NaCl, 3.4 mM EDTA, 0.005% Tween 20] at 25° C. Antibodies were injected at serial dilutions ranging from 0.25 nM to 16 nM at a flow rate of 30 μl/min unless otherwise indicated. The amount of bound analyte after subtraction from the blank control surface is shown as relative response units (RU). The double referenced sensorgrams from each injection series were analyzed for binding kinetics using BIA evaluation software (GE Healthcare). Dissociation constants (KDs) were calculated from the on- and off-rates (kₒₙ and koff, respectively), as determined by global fitting of the experimental data to a 1:1 Langmuir binding model (Chi²<1).
# T1 sequence (P02787 20-698 limits assumed): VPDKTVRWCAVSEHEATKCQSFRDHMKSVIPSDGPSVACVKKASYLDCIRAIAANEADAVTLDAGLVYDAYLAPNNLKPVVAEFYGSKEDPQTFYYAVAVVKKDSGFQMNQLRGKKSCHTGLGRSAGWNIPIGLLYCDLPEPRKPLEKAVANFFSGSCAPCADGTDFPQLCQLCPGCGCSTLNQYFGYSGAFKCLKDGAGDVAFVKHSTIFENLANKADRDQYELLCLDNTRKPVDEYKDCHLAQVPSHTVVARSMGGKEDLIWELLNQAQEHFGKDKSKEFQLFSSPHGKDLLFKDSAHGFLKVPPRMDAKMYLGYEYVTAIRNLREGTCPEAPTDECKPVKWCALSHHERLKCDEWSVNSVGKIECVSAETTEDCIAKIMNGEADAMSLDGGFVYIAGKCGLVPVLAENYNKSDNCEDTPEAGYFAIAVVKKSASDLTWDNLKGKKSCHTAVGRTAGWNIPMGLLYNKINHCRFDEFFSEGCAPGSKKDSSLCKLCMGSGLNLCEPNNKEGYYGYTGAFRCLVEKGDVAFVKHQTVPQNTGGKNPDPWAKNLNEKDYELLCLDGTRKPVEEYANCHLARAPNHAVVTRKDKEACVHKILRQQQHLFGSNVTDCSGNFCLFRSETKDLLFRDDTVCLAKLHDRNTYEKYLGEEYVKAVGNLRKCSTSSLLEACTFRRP
Kd,koff,kon,Binder
0.0131 nM,0.000674 s⁻¹,5.14e+07 M⁻¹ s⁻¹,"sdAb A60219 (VHH, Llama sdAb, made in E. coli periplasm, His-tagged, for SPR; also called A602019; not shown: C-terminal histidine tag added by vector pSJF2H) VHH: QVQLVESGGGLVQAGGSLRLSCVASGSGFGINGVIWYRQAPGKQRELVALIKSDGYTNYRESVKGRFTISRDDAKNTVWLQMNALEPEDTGVYYCKTPGVPFGQGTQVTVSS"
0.0671 nM,6.22e-05 s⁻¹,927000 M⁻¹ s⁻¹,"sdAb A60401 (VHH, Llama sdAb, made in E. coli periplasm, His-tagged, for SPR; not shown: C-terminal histidine tag added by vector pSJF2H) VHH: QVKLEESGGGLVQAGGSLRLSCEASGNVFTIAAMGWFRQAPGKERELVAGITTGGSTNYADSVKGRFTISRDNAQNTMYLQMNSLRPEDTAAYSCNAVTKWAARVGGSAEYEYWGQGTQVTVSS"

# Target: monkey transferrin (monkey)
# Assay: SPR, transferrin immobilized, sdAb as analyte
Kd,koff,kon,Binder
2.4 nM,0.000593 s⁻¹,247000 M⁻¹ s⁻¹,"sdAb A69433 (VHH, Llama sdAb, made in E. coli periplasm, His-tagged, for SPR; not shown: C-terminal histidine tag added by vector pSJF2H) VHH: QVKLEESGGGLVQAGGSLRLSCVASGNVFGIDAVGWYRQAPGKQRELVAATTTSGSSTNYADSVKGRFTISRDIAKNTVYLQMDSLKPEDTAVYYCYARPKQATLIRDDYWGQGTQVTVSS"
0.25 nM,7.58e-05 s⁻¹,304000 M⁻¹ s⁻¹,"sdAb A69447 (VHH, Llama sdAb, made in E. coli periplasm, His-tagged, for SPR; not shown: C-terminal histidine tag added by vector pSJF2H) VHH: QVKLEESGGGSVQAGGSLRLSCTGSGSIFPLNDMGWYRQAPGKQRELVATITRGGTTNYADSVKGRFTISRDSNAKNTVYLQMNSLKVEDTAVYYCNMDNRVGGSYWGQGTQVTVSS"
1.12 nM,0.000529 s⁻¹,471000 M⁻¹ s⁻¹,"sdAb A69449 (VHH, Llama sdAb, made in E. coli periplasm, His-tagged, for SPR; also called A60449; not shown: C-terminal histidine tag added by vector pSJF2H) VHH: QVQLVESGGGVVQAGGSLRLSCVASGSVFSIDAMGWYRQAPGNQRELVAAMTNAGSTNYADSVKGRFTISRDNAENTVYLQMNSLKPEDTAVYYCNARSKLIARINNPYEYWGQGTQVTVSS"

# Target: T1, human transferrin
# Assay: SPR, transferrin immobilized, sdAb as analyte
Kd,koff,kon,Binder
5.76 nM,0.000642 s⁻¹,111000 M⁻¹ s⁻¹,"sdAb A69433 (VHH, Llama sdAb, made in E. coli periplasm, His-tagged, for SPR; not shown: C-terminal histidine tag added by vector pSJF2H) VHH: QVKLEESGGGLVQAGGSLRLSCVASGNVFGIDAVGWYRQAPGKQRELVAATTTSGSSTNYADSVKGRFTISRDIAKNTVYLQMDSLKPEDTAVYYCYARPKQATLIRDDYWGQGTQVTVSS"
1.03 nM,0.000209 s⁻¹,203000 M⁻¹ s⁻¹,"sdAb A69447 (VHH, Llama sdAb, made in E. coli periplasm, His-tagged, for SPR; not shown: C-terminal histidine tag added by vector pSJF2H) VHH: QVKLEESGGGSVQAGGSLRLSCTGSGSIFPLNDMGWYRQAPGKQRELVATITRGGTTNYADSVKGRFTISRDSNAKNTVYLQMNSLKVEDTAVYYCNMDNRVGGSYWGQGTQVTVSS"
2.03 nM,0.000695 s⁻¹,342000 M⁻¹ s⁻¹,"sdAb A69449 (VHH, Llama sdAb, made in E. coli periplasm, His-tagged, for SPR; also called A60449; not shown: C-terminal histidine tag added by vector pSJF2H) VHH: QVQLVESGGGVVQAGGSLRLSCVASGSVFSIDAMGWYRQAPGNQRELVAAMTNAGSTNYADSVKGRFTISRDNAENTVYLQMNSLKPEDTAVYYCNARSKLIARINNPYEYWGQGTQVTVSS"

# Target: T1, human transferrin
# Assay: phage display panning and phage ELISA
# Procedure: The llama immune phage display library was panned against transferrin that was conjugated to M-280 beads (Invitrogen). Approximately 3×10¹¹ phages were added to the beads and incubated at 37° C. for 2 hours for antigen binding. After disposal of unbound phages, the beads were washed six times with phosphate buffered saline supplemented with 0.05% Tween 20 (PBST) for round one, and the washes were increased by one for each additional round. Phages were eluted by 10 min incubation with 100 μl 100 mM triethylamine, and the eluate was subsequently neutralized with 200 μl 1 M Tris-HCl (pH 7.5). Phages were amplified as described above, but on a smaller scale. After two rounds of panning, eluted phages were used to infect exponentially growing E. coli TG1. Individual colonies were used in phage enzyme-linked immunosorbent assay (ELISA).
# For phage ELISA, a 96-well microliter plate was coated overnight with 2 μg/ml human transferrin and then blocked with 4% […] phosphate buffered saline (MPBS) for 2 hours at 37° C. Phage from individual clones were pre-blocked with 4% MPBS overnight, added to the pre-blocked wells and incubated for 1 hour. Phage ELISA was performed using the GE Healthcare Detection Module Recombinant Phage Antibody System (GE Healthcare, Uppsala, Sweden) and positive phage clones were sequenced.
row,Binder,binding result
1,sdAb A69476 (VHH) VHH: QVKLEESGGGLVQPGGSLRLSCAASGNVFTIDAMGWYRQAPGKEREVVVGMTNGGKTNYADSVKGRFTISRDNAKNTVSLQMNSLKPEDTAVYYCYARSKLIATINNPYDYWGQGTQVTVSS,binds
2,sdAb A12666 (VHH) VHH: QVKLEESGGGLVQAGGSLRLSCVASGSGFGVNGVIWYRQAPGKQRELVALIKSDGYTNYRESVKGRFTISRDDAKNTVWLQMNALEPEDTGVYYCKTPGVPFGQGTQVTVSS,binds
3,sdAb A12692 (VHH) VHH: EVQLVECGGGLVQAGGSLRLSCVASGSGFGINGVIWYRQAPGKQRELVALIKSDGYTNYRESVKGRFTISRDDAKNTVWLQMNALEPEDTGVYYCKTPGVPFGQGTQVTVSS,binds
4,sdAb A12690 (VHH) VHH: QVQLVESGGGLVQPGGSLRLSCVASGSGFGINGVIWYRQAPGKRRELVALIKSDGYTNYRESVKGRFTISRDDAKNTVWLQMNALEPEDTGVYYCKTPGVPFGQGTQVTVSS,binds
5,sdAb A13152 (VHH) VHH: QVQLVESGGGLVQAGGSLRLSCVAPGSGFGINGVIWYRQAPGKQRELVALIKSDGYTNYRESVKGRFTISRDDAKNTVWLQMNALEPEDTGVYYCKTPGVPFGQGTQVTVSS,binds
6,sdAb A12659 (VHH) VHH: EVQLVECGGGLVQAGGSLRLSCVASGSGFGINGVIWYRQAPGKQRELVALIKSDGYTNYRESVKGRFTISRDDARNTVWLQMNALEPEDTGVYYCKTPGVPFGQGTQVTVSS,binds
7,sdAb A13355 (VHH) VHH: QVKLEESGGGLVQAGGSLRLSCVASGSGFGINGVIWYRQAPGKQRELVALIKSDGYTNYRESVRGRFTISRDDAKNTVWLQMNALEPEDTGVYYCKTPGVPFGQGTQVTVSS,binds

# Next, values leading:
row,binding result,Binder
1,binds,sdAb A13154 (VHH) VHH: QVQLVESGGGLVQPGGSLRLSCVASGSGFGINGVIWYRQAPGKQRELVALIKSDGYTNYRESVKGRFTISRDDAKNTVWLQMSALEPEDTGVYYCKTPGVPFGQGTQVTVSS
2,binds,sdAb A13376 (VHH) VHH: QVKLEESGGGLVQAGGSLRLSCAASGNVFTIAAMAWYRQAPGKERELVAGITTGGSTNYADSVKGRFTISRDNAQNTMYLQMNSLRPEDTAVYFCNAVTKWAARVGGSAEYEYWGQGTQVTVSS
3,binds,sdAb A69441 (VHH) VHH: QVKLEESGGGLVQPGGSLRLSCAASGSIFSIKVMGWYRQAPGKQRELVADITSGGSTDYSDSVKGRFTISRDNAKNTVYLQMNSLKPEDTAVYYCNADLGCSGAGSCPDYWGQGTQVTVSS
